Measurements reported in paper PMC11847536 (The Journal of Biological Chemistry, 2025).

B1: BODIPY-labeled pICln (natural protein, UniProt P54105 1-237, looked up)
chain: MSFLKSFPPPGPAEGLLRQQPDTEAVLNGKGLGTGTLYIAESRLSWLDGSGLGFSLEYPTISLHALSRDRSDCLGEHLYVMVNAKFEEESKEPVADEEEEDSDDDVEPITEFRFVPSDKSALEAMFTAMCECQALHPDPEDEDSDDYDGEEYDVEAHEQGQGDIPTFYTYEEGLSHLTAEGQATLERLEGMLSQSVSSQYNMAGVRTEDSIRDYEDGMEVDTTPTVAGQFEDADVDH
modifications: BODIPY (labeled by BODIPY-maleimide; site not stated)
notes: pICln, PRMT5 substrate adaptor with a PBM peptide in its C-terminal region; also called BODIPY-pICln; source: LBSTR Escherichia coli (Kerafast, EC1002), purified
B2: pICln (unlabeled) (natural protein, UniProt P54105 1-237, looked up)
chain: B1 chain
notes: pICln, PRMT5 substrate adaptor with a PBM peptide in its C-terminal region; Used free in the displacement assay and as a member of the 6S complex in the cryo-EM sample; only the PBM peptide is seen in the map; also called pICIn; source: LBSTR Escherichia coli (Kerafast, EC1002), purified

Tests used:
[1] = target: T1, PRMT5/biotinylated WDR77 complex (UniProt O14744 1-637; Q9BQA1 1-342, biotin (site not stated)); experiment: FRET or BRET; TR-FRET equilibrium binding: adaptors labeled by BODIPY-maleimide titrated into PRMT5/biotinylated WDR77 incubated with terbium-coupled streptavidin; conditions: both partners purified
T1 construct: PRMT5 (protein arginine methyltransferase 5); Held by terbium-coupled streptavidin in the TR-FRET assay; copies: 4 + 4

[2] = target: T1, PRMT5/biotinylated WDR77 complex; experiment: FRET or BRET; TR-FRET displacement: unlabeled pICln, RIOK1 and ΔPBM constructs titrated to displace BODIPY-labeled pICln tracer from PRMT5/WDR77; conditions: both partners purified

T1 sequence (O14744 whole entry, chain 1 of 2): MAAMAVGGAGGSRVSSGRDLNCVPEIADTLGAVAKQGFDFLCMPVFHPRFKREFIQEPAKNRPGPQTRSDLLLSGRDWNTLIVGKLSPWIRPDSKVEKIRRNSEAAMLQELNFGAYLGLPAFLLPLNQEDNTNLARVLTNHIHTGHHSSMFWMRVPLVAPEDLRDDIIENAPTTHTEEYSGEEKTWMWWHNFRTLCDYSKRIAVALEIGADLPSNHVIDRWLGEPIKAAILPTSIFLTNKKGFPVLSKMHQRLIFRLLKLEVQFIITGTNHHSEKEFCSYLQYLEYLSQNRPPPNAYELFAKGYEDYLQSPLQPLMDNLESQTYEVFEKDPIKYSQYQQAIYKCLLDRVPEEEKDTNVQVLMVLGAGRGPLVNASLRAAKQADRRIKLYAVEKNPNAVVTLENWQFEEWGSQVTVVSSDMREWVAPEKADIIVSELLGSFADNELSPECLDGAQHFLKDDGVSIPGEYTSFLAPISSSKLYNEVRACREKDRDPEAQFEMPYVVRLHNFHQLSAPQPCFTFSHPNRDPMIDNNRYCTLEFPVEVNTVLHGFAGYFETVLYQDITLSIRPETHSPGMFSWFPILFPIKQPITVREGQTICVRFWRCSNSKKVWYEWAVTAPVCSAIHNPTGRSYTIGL
T1 sequence (Q9BQA1 whole entry, chain 2 of 2): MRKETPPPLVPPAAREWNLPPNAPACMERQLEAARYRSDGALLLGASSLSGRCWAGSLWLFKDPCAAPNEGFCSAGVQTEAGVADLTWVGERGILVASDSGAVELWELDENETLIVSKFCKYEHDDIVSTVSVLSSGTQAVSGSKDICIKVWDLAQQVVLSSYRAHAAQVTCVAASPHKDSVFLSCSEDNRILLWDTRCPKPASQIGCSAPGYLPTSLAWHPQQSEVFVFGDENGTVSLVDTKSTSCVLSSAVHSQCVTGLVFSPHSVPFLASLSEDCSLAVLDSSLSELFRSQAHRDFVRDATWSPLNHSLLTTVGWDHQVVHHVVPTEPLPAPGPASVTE

| Kd [1] | IC50 [2] | Binder |
| --- | --- | --- |
| 32.5 ± 3.8 nM | – | B1 |
| – | 69.5 ± 3.3 nM | B2 |
